Target: VEGF-C and VEGF-D
Test: ELISA; after storage at -20 C or 5 C for up to 24 months

- decrease of binding activity against initiation of the stability study: 9 to 19%
Substance: OPT-302 (Fc fusion)
